The chains are these.
B1: recombinant homomeric GluA4 receptor (C-terminal GFP and Strep tag) (receptor, UniProt P19493 21-902, looked up)
chain: GAFPSSVQIGGLFIRNTDQEYTAFRLAIFLHNTSPNASEAPFNLVPHVDNIETANSFAVTNAFCSQYSRGVFAIFGLYDKRSVHTLTSFCSALHISLITPSFPTEGESQFVLQLRPSLRGALLSLLDHYEWNCFVFLYDTDRGYSILQAIMEKAGQNGWHVSAICVENFNDVSYRQLLEELDRRQEKKFVIDCEIERLQNILEQIVSVGKHVKGYHYIIANLGFKDISLERFIHGGANVTGFQLVDFNTPMVTKLMDRWKKLDQREYPGSETPPKYTSALTYDGVLVMAETFRSLRRQKIDISRRGNAGDCLANPAAPWGQGIDMERTLKQVRIQGLTGNVQFDHYGRRVNYTMDVFELKSTGPRKVGYWNDMDKLVLIQDMPTLGNDTAAIENRTVVVTTIMESPYVMYKKNHEMFEGNDKYEGYCVDLASEIAKHIGIKYKIAIVPDGKYGARDADTKIWNGMVGELVYGKAEIAIAPLTITLVREEVIDFSKPFMSLGISIMIKKPQKSKPGVFSFLDPLAYEIWMCIVFAYIGVSVVLFLVSRFSPYEWHTEEPEDGKEGPSDQPPNEFGIFNSLWFSLGAFMQQGCDISPRSLSGRIVGGVWWFFTLIIISSYTANLAAFLTVERMVSPIESAEDLAKQTEIAYGTLDSGSTKEFFRRSKIAVYEKMWTYMRSAEPSVFTRTTAEGVARVRKSKGKFAFLLESTMNEYTEQRKPCDTMKVGGNLDSKGYGVATPKGSSLGNAVNLAVLKLNEQGLLDKLKNKWWYDKGECGSGGGDSKDKTSALSLSNVAGVFYILVGGLGLAMLVALIEFCYKSRAEAKRMKLTFSEATRNKARLSITGSVGENGRVLTPDCPKAVHTGTAIRQSSGLAVIASDLP
notes: GluA4; also called recombinant GluA4; rGluA4-GFP; source: tsA201 cells (BacMam), digitonin-solubilised, purified (Strep-Tactin, SEC); not shown: GFP, C-terminal, kept

Conditions in all cases: both partners purified
Experiment [1] has as its target T1, recombinant full-length NOE1–mScarlet-His (rat, UniProt Q62609 25-485).
T1 construct: signal peptide in the construct; full-length rat NOE1, residues 1-485; Tag joined by an SG linker or an SG–HRV 3C site–AAAA motif; source: tsA201 cells (BacMam), secreted, purified (Ni-NTA, SEC); not shown: mScarlet, C-terminal, kept
The experiment in a line: SEC; FSEC, Superose 6 calibrated with mass markers; 5 nM full-length NOE1–mScarlet with 5–150 nM GluA4, or 1 nM with 1–100 nM CP-AMPARs; mScarlet fluorescence.

The target in experiment [2] is dNOE1–mScarlet (dimeric NOE1 construct, residues 205-481 with five GCN4 residues) (rat, UniProt Q62609 205-481). In words: SEC; FSEC of the dNOE1 construct alone, in the absence of a reducing agent. A general note: SEC sorts molecules by how far they enter the pores of the column.
The target of experiment [3] is B1. The experiment in a line: BLI; Octet RED384, 30 °C; Fc–dNOE1–mScarlet (20 μg/ml) captured on AMC biosensor; GluA4–GFP 0.78–50 nM; 20 mM Tris pH 8.0, 150 mM NaCl, 0.075% digitonin with 3 mM glutamate or 2 μM ZK and 10 μM (R,R)-2b; 1:1 binding model.

Broadly, the stoichiometry N is the number of molecules, sites or subunits per partner or assembly. The term Kd denotes the concentration at which binding is half-saturated.

T1 sequence (Q62609 25-485): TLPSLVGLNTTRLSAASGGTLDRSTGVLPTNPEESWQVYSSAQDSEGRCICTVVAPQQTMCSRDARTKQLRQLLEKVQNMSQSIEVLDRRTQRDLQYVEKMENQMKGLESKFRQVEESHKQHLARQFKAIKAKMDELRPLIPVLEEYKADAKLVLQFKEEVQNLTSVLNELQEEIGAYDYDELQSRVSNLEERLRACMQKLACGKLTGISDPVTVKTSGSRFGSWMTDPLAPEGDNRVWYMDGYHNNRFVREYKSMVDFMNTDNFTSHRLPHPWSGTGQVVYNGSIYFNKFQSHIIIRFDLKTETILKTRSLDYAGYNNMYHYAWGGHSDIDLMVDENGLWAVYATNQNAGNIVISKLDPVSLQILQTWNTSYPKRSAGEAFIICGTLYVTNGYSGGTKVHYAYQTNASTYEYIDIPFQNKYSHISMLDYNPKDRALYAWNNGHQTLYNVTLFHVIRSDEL

B1: the “stoichiometry N” value in experiment [1] was 2 receptors per NOE1 tetramer.

B2: dNOE1–mScarlet (dimeric NOE1 construct, residues 205-481 with five GCN4 residues) (domain or fragment)
chain: GLKQEIDELQSRVSNLEERLRACMQKLACGKLTGISDPVTVKTSGSRFGSWMTDPLAPEGDNRVWYMDGYHNNRFVREYKSMVDFMNTDNFTSHRLPHPWSGTGQVVYNGSIYFNKFQSHIIIRFDLKTETILKTRSLDYAGYNNMYHYAWGGHSDIDLMVDENGLWAVYATNQNAGNIVISKLDPVSLQILQTWNTSYPKRSAGEAFIICGTLYVTNGYSGGTKVHYAYQTNASTYEYIDIPFQNKYSHISMLDYNPKDRALYAWNNGHQTLYNVTLFHVIR
modifications: Disulfide-linked dimer (non-reducing), glycosylated. The cystatin SN signal peptide is assumed cleaved after ...AVALA by convention, leaving G plus GCN4 LKQEI. C-terminal GSG-3C-AAAA-mScarlet-His …
As for B2, in experiment [2], the “stoichiometry N” value amounted to 2.

B3: Fc–dNOE1–mScarlet (Fc fusion)
chain: LKQEIDELQSRVSNLEERLRACMQKLACGKLTGISDPVTVKTSGSRFGSWMTDPLAPEGDNRVWYMDGYHNNRFVREYKSMVDFMNTDNFTSHRLPHPWSGTGQVVYNGSIYFNKFQSHIIIRFDLKTETILKTRSLDYAGYNNMYHYAWGGHSDIDLMVDENGLWAVYATNQNAGNIVISKLDPVSLQILQTWNTSYPKRSAGEAFIICGTLYVTNGYSGGTKVHYAYQTNASTYEYIDIPFQNKYSHISMLDYNPKDRALYAWNNGHQTLYNVTLFHVIR
modifications: Disulfide-linked, glycosylated dimer. Mouse Fc carrier (before the coiled coil) and C-terminal mScarlet-His left out. The position of the five GCN4 residues relative to Fc is not given; they are …
B3: the Kd in experiment [3] was about 9.4 nM.

Values taken from publication PMC12422955 (Nature, 2025).
